Measured values: patent US12416018B2, “Regulation of gene expression by aptamer-mediated modulation of alternative splicing” (MEIRAGTX GENE REGULATION LIMITED, priority 2015, dated 2025)
Substitutions are numbered along the chain they refer to. “Also recorded” adds a separate entry of the source. Like-named read-outs stand apart in the source and are kept apart here.

Columns and labels:
[1] = tested on: luciferase expression in HEK 293 cells; format: cell-based; details: for fold induction of luciferase expression over un-induced baseline: 500 µM; for induced luciferase level as percent of Con1 (maximal expression): guanine treatment (500 μM), HEK 293 cells
Description: Xpt-guanine aptamer with the following sequence: cactcatataat[…]cgact atgggtg (SEQ ID NO.: 10), was used to construct a riboswitch. Oligos containing the sequence of guanine aptamer and hairpin stem with 4 nucleotide 5′ overhang were synthesized (IDT), annealed and then ligated to BsaI-digested DHFR-acceptor vector. HEK 293 cells were transfected as described in Example 1. Four hours after transfection, the media was aspirated, and new media with or without 500 μM guanine was added. Luciferase expression was assayed 20 to 24 hrs after guanine treatment as described in Example 1 and Example 4. HepG2, AML12, RD and C2C12 (ATCC) were cultured using the protocol recommended by ATCC. The intron-exon-intron cassette containing the xpt-G17 riboswitch (SEQ ID NO.: 15) was inserted in the leader peptide sequences of the anti-KDR antibody gene and into the Stul site in mouse erythropoietin gene using Gibson cloning strategy (NEB). Constructs containing mouse erythropoietin (Epo) or anti-KDR antibody were transfected into HEK 293 cells. Four hour after transfection, the media was aspirated, and new media with or without 500 μM guanine was added. Supernatants were subjected to ELISA assay for the production of either anti-KDR antibody or the production of mouse Epo (R&D Systems).
Constructs were made using Golden Gate cloning strategy (NEB). […] Luciferase activity was assayed as described in Example 5.
The Con1 construct was used as a template for PCR amplification of intron fragments that have either upstream or downstream intron deletions. To generate constructs that have single intron deletions, PCR products were cloned into the constructs containing the xpt-G17 riboswitch using Golden Gate cloning strategy (NEB). To generate constructs with both upstream and downstream intron deletions, fragments released by EcoRI and BamHI from constructs with single deletions in the downstream intron sequence were cloned into EcoRI and BamHI-digested constructs with single deletions in the upstream intron sequence.
Sequences of mutant human Wilms tumor 1 exon 5 (mutWT1-e5, SEQ ID NO.: 61), SIRT1 exon 6 (SIRT1-e6, SEQ ID NO.: 62), mouse calcium/calmodulin-dependent protein kinase II delta exon 16, or 17 (Camk2d-e16 or e17, SEQ ID NOs.: 59, 60), and synthetic exon ENEEE (SEQ ID NO.: 63) were synthesized (IDT) and cloned into the DHFR-G17 vector in place of the DHFR exon using Gibson Cloning kit (NEB). Plasmid DNA was transfected into HEK 293 cells, treated with 500 μM guanine, and luciferase assay performed as described in Example 1. The sequences of each exon with 5′ and 3′ splice sites are shown with exonic sequences in uppercase letters (Table 5, SEQ ID NOS.: 59 to 63).

[2] = tested on: firefly luciferase gene expression in HEK 293 cells; assay: Firefly luciferase assay of HEK 293 cells transfected with splicing / Intron-Exon-Intron constructs (no ligand); format: cell-based
Description: Transfection: 3.5×10^4 HEK 293 cells were plated in 96-well flat bottom plate the day before transfection. Plasmid DNA (500 ng) was added to a tube or a 96-well U-bottom plate. Separately, TransIT-293 reagent (Mirus; 1.4 uL) was added to 50 μL Opti-mem I media (Life Technologies), and allowed to sit for 5 minutes at room temperature (RT). Then, 50 μL of this diluted transfection reagent was added to the DNA, mixed, and incubated at room temperature (“RT”) for 20 min. Finally, 7 μL of this solution was added to a well of cells in the 96-well plate.
Firefly luciferase assay of cultured cells: 24 hours after media change, plates were removed from the incubator, and equilibrated to RT for several minutes on a lab bench, then aspirated. Glo-lysis buffer (Promega, 100 μL, RT) was added, and the plates allowed to remain at RT for at least 5 minutes. Then, the well contents were mixed by 50 μL trituration, and 20 μL of each sample was mixed with 20 μL of bright-glo reagent (Promega) that had been diluted to 10% in glo-lysis buffer. 96 wells were spaced on an opaque white 384-well plate. Following a 5 min incubation at RT, luminescence was measured using Tecan machine with 500 mSec read time. The luciferase activity was expressed as mean relative light unit (RLU)±S.D.
The constructs were verified by DNA sequencing (Genewiz). DNA was transfected in HEK 293 cells and assayed for luciferase activity as described in Example 1.
Sequences containing the DHFR exon 2 with native 3′ and 5′ ss sequences, in which the 5′ss was embedded in a hairpin structure were synthesized (IDT), and cloned into the indicated vector using Golden Gate cloning strategy (NEB). Constructs were transfected into HEK 293 cells and assayed for luciferase activity as described in Example 1.

In the case of “DHFR_G15: luciferase construct with the xpt-G15 containing regulatory cassette (SEQ ID NO: 46) (chain 1 GTAGAAGGTAATGTGTAT; chain 2 CTACACATTACGCAC; chemistry not fully specified)”, the “fold induction of luciferase expression over un-induced baseline” value (“fold induction of luciferase expression” below) [1] is reported as 60 fold and the “induced luciferase level as percent of Con1 (maximal expression)” value (“induced luciferase level as percent” for short) [1] is reported as ~100%.

In the case of “DHFR_G16: luciferase construct with xpt-guanine aptamer cassette, truncated stem (chain 1 GTAGAAGGTAATGTTAT; chain 2 CTAACATTACGCAC; chemistry not fully specified)”, the “fold induction of luciferase expression” value [1] is reported as “about 800 fold” and the “induced luciferase level as percent” value [1] is reported as 83%.

“DHFR_G14: luciferase construct with xpt-guanine aptamer cassette, truncated stem (chain 1 GTAGAAGGTAATGTGATAT; chain 2 CTATCACATTACGCAC; expressed or natural sequence)” was tested, and the “induced luciferase level as percent” value [1] was ~100%.

B1: DHFR_wtmtSRp40_HP15: DHFR_wtmtSRp40 with 5′ss in hairpin; SEQ ID NO: 56 (nucleic acid)
DNA: GAGTAACGCTGTTTCTCTAACTTGTAGGAATGAATTCAGATATTTCCAGAGAATGAAAAAAAAATCTTCAGTAGAAGGTAATGTGGCGAAAGCCACATTACCTTCT
modifications: expressed or natural sequence
In the case of B1, the “luciferase expression relative to control constructs (in words)” value [2] is reported as “restored luciferase expression”.

B2: DHFR_wtmtSRp40_HP15x: DHFR_wtmtSRp40 with broken hairpin; SEQ ID NO: 57 (nucleic acid)
DNA: B1 DNA with G92A, C93A, C96G, T98A, T99C, A100T, C101G, C102A, T103G, C105A
modifications: expressed or natural sequence
In the case of B2, the “luciferase expression relative to control constructs (in words)” value [2] is reported as “blocked luciferase expression; also recorded: prevents expression of luciferase”.

B3: DHFR_wt: Con 1 with wild type human DHFR exon 2, native 5′ss; SEQ ID NO: 47 (nucleic acid)
DNA: GAGTAACGCTGTTTCTCTAACTTGTAGGAATGAATTCAGATATTTCCAGAGAATGACCACAACCTCTTCAGTAGAAGGTAATGTG
modifications: expressed or natural sequence
B3 was tested, and the “fold lower luciferase expression compared with Con 1” value (from here on “fold lower luciferase expression”) [2] was 116 fold.

B4: DHFR_wt5ssC: DHFR exon 2 with native 5′ss four nucleotides mutated to C; SEQ ID NO: 48 (nucleic acid)
DNA: B3 DNA with G78C, T79C, A80C, A81C
modifications: expressed or natural sequence
In the case of B4, the “luciferase expression relative to control constructs (in words)” value [2] is reported as “restored to the level of Con 1”.

B5: DHFR_wtmtSRp40: DHFR exon 2 with mutated SRp40 binding site; SEQ ID NO: 51 / 58 (nucleic acid)
DNA 1: B3 DNA with C57A, C58A, C60A, C63A, C64A
DNA 2: GAGTAACGCTGTTTCTCTAACTTGTAGGAATGAATTCAGATATTTCCAGAGAATGAAAAAAAAATCTTCAGTAGAAGGTAATGT
modifications: expressed or natural sequence
In the case of B5, the “fold lower luciferase expression” value [2] is reported as 2,982 fold, the “luciferase expression relative to control constructs (in words)” value [2] is reported as “does not express luciferase” and the “fold lower luciferase expression” value ([2]; listed as DHFR_mtSRp40) is reported as 2982 fold.

B6: DHFR_wtStrSC35: DHFR exon 2 with stronger SC35 binding site; SEQ ID NO: 52 (nucleic acid)
DNA: B3 DNA with A33G, A34C, T35C, T36C, A38T
modifications: expressed or natural sequence
For B6, the “fold lower luciferase expression” value [2] was 139 fold.

B7: DHFR_Con15ss: DHFR exon 2 with 5′ss from Con 1; SEQ ID NO: 49 (nucleic acid)
DNA: B3 DNA with A76G, A80G, T82G, G83T
modifications: expressed or natural sequence
With B7 the “fold lower luciferase expression” value [2] was 545 fold and the “luciferase expression relative to control constructs (in words)” value [2] was “abolishes luciferase expression compared to Con 1; also recorded: efficiently suppresses luciferase expression”.

B8: DHFR_Con45ss: DHFR exon 2 with weak 5′ss from Con 4; SEQ ID NO: 50 (nucleic acid)
DNA: B3 DNA with A75G, A80G, A81T, T82G
modifications: expressed or natural sequence
B8 was tested, and the “luciferase expression relative to control constructs (in words)” value [2] was “luciferase expression is increased”.

B9: DHFR_wtSC35hnRNPA1: DHFR exon 2, SC35 site replaced by hnRNP A1 binding site; SEQ ID NO: 53 (nucleic acid)
DNA: B3 DNA with A33T, T35G, T36G, C37G
modifications: expressed or natural sequence
B9 was tested, and the “fold increase in luciferase expression compared to the wild type DHFR exon 2” value [2] was 4.3 fold and the “luciferase expression relative to control constructs (in words)” value [2] was “increased luciferase expression”.

B10: DHFR_Con15ss_HP15: DHFR_Con15ss with 15 bp hairpin embedding the 5′ss; SEQ ID NO: 54 (nucleic acid)
DNA: GAGTAACGCTGTTTCTCTAACTTGTAGGAATGAATTCAGATATTTCCAGAGAATGACCACAACCTCTTCAGTAGAGGGTGAGTTGGCGAAAGCCAACTCACCCTCT
modifications: expressed or natural sequence
B10 was tested, and the “luciferase expression relative to control constructs (in words)” value [2] was “allows luciferase expression” and the “luciferase expression relative to control constructs (in words)” value ([2]; listed as DHFR_Con 15ss_HP15) was “completely restores luciferase expression to the level of Con 1”.

B11: DHFR_Con15ss_HP15x: 15 bp hairpin with broken stem; SEQ ID NO: 55 (nucleic acid)
DNA: B10 DNA with G92A, C93A, A96G, T98A, C99T, C101A, C102A, C103G, C105A
modifications: expressed or natural sequence
B11 was tested, and the “luciferase expression relative to control constructs (in words)” value [2] was “not able to restore luciferase expression; also recorded: does not restore luciferase expression”.

B12: Con 4: luciferase with IVS2Δ, weak 5′ss; SEQ ID NO: 4 (nucleic acid)
DNA: AAGAGCTGTTTCTGAGGAGGTGTGGCTATGGGACCCTTGATGTTTTCTTTCCCCTTCTTTTCTATGGTTAAGTTCATGTCATAGGAAGGGGAGAAGTAACAGGGTACACATATTGACCAAATCAGGGTAATTTTGCATTTGTAATTTTAAAAAATGCTTTCTTCTTTTAATATACTTTTTTGTTTATCTTATTTCTAATACTTTCCCTAATCTCTTTCTTTCAGGGCAATAATGATACAATGTATCATGCCTCTTTGCACCATTCTAAAGAATAACAGTGATAATTTCTGGGTTAAGGCAATAGCAATATTTCTGCATATAAATATTTCTGCATATAAATTGTAACTGATGTAAGAGGTTTCATATTGCTAATAGCAGCTACAATCCAGCTACCATTCTGCTTTTATTTTATGGTTGGGATAAGGCTGGATTATTCTGAGTCCAAGCTAGGCCCTTTTGCTAATCATGTTCATACCTCTTATCTTCCTCCCACAGCCTTCAGGATTACAAGATTCAA
modifications: Luci-IVS-Luci in construct Con4
In the case of B12, the “luciferase expression relative to control constructs (in words)” value [2] is reported as “significantly reduce luciferase expression”.

B13: 2IR-3: xpt-G17 cassette, two intron deletions; SEQ ID NO: 31 (nucleic acid)
DNA: GTGAGTCTATGGGACCCTTGATGTTTTCTTTCCCTGCTCAAATCAGGGTAATTTTGCATTTGTAATTTTAAAAAATGCTTTCTTCTTTTAATATACTTTTTTGTTTATCTTATTTCTAATACTTTCCCTAATCTCTTTCTTTCAGGGCAATAATGATACAATGTATCATGCCGAGTAACGCTGTTTCTCTAACTTGTAGGAATGAATTCAGATATTTCCAGAGAATGAAAAAAAAATCTTCAGTAGAAGGTAATGTATAATCGCGTGGATATGGCACGCAAGTTTCTACCGGGCACCGTAAATGTCCGACTACATTACGCACCATTCTAAAGAATAACAGTGATAATTTCTGGGTTAAGGCAATAGCTGCTGAGGTTTCATATTGCTAATAGCAGCTACAATCCAGCTACCATTCTGCTTTTATTTTATGGTTGGGATAAGGCTGGATTATTCTGAGTCCAAGCTAGGCCCTTTTGCTAATCATGTTCATACCTCTTATCTTCCTCCCACAG
modifications: xpt-G17-2IR-3
For B13, the “fold induction of luciferase expression” value [1] was 4744 fold and the “regulation of luciferase expression by guanine (in words)” value ([1]; with or without 500 μM guanine) was “significant increase in the fold of target gene expression”.
